Reference: patent WO2011161970A1 (dated 2011)

B1: 24A1 antibody (mouse anti-human PDGFRα monoclonal antibody, clone number 24A1) (antibody, V domains shown)
VH: DVQLQESGPGLVKPSQSLSLTCTVTGYSITSDYAWNWIRQFPGNKLEWVGYISYSGSTSYNPSLKSRISITRDTSKNQFFLQLNSVTTEDTATYYCARRDYRYGYWYFDVWGAGTTVTVSS
VL: DIQMNQSPSSLSASLGDTITITCHASQNIHVWLTWYQQKPGNIPKLLIYKASNLHTGVPSRFSGSGSGTGFTLTISSLQPEDIATYYCQQGQSYPWTFGGGTKLEIKR
notes: no cleavage site is stated; also called monoclonal antibody 24A1; mouse anti-PDGFRα antibody (24A1 antibody)
B2: humanized anti-PDGFRα antibody (24A1) (antibody, human IgG1, kappa, V domains shown)
VH: DVQLQESGPGLVKPSQTLSLTCTVSGYSITSDYAWNWIRQPPGKGLEWVGYISYSGSTSYNPSLKSRISITRDTSKNQFSLKLSSVTAADTAVYYCARRDYRYGYWYFDVWGAGTTVTVSS
VL: DIQMNQSPSSVSASVGDRVTITCHASQNIHVWLTWYQQKPGKAPKLLIYKASNLHTGVPSRFSGSGSGTDFTLTISSLQPEDFATYYCQQGQSYPWTFGGGTKLEIKR
notes: also called humanized 24A1 antibody; Hu PDGFRa (24A1)
B3: 21A1 antibody (mouse anti-human PDGFRα monoclonal antibody, clone number 21A1) (antibody, V domains shown)
VH: EVKLLESGGGLVQPGGSLKLSCAASGFDFSIFWMSWVRQAPGKGLEWIGEINPDSSTINYTPSLKDKFIISRDNAKNTLYLQMSKVRSEDTALYFCARQRFGPYWGQGTLVTVSA
VL: DIVMTQSHKFMSTSVGDRVSITCKASQDVSTAVAWYQQKPGQSPNLLIYSASYRYTGVPDRFTGSGSGTDFTFTISSVQAEDLAVYYCQQYYSTPYTFGGGTKLEIKR
notes: no cleavage site is stated; also called monoclonal antibody 21A1; hPDGFRα(21A1) MoAb

Columns and labels:
[1] = target: T1, human PDGFRα-Fc fusion protein (PDGFRα extracellular region [1-514 amino acids] and mouse IgG2a constant … (human; mouse, UniProt P16234 24-514); assay: EIA, PDGFRα-Fc immobilised on plate, serially diluted COS-1 culture supernatant
T1 construct: not shown: mouse IgG2a constant region

[2] = target: T1, human PDGFRα-Fc fusion protein (PDGFRα …); assay: EIA, PDGFRα-Fc immobilised on plate, serially diluted COS-1 culture supernatant, anti-human IgG constant region HRP detection

T1 sequence (P16234 24-514 limits assumed): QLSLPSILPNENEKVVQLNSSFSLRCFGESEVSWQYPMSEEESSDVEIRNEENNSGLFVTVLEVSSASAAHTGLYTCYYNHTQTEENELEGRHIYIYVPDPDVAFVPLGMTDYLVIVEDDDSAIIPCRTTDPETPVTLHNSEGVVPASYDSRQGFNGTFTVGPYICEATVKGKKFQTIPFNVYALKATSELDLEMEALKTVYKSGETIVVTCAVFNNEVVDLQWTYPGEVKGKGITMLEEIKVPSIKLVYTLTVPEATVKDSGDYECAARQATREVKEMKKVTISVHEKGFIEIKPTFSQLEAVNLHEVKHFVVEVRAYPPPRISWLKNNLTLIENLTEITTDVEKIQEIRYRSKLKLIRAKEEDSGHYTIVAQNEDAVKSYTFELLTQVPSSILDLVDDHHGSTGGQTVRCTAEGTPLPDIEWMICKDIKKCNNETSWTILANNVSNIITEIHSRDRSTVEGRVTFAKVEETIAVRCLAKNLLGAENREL

Binder | binding result [1] | binding result [2]
B1 | binds | 
B2 |  | binds
B3 | binds | 
